From patent publication US7494647 (Chugai, dated 2009)
Like-named read-outs stand apart in the source and are kept apart here.

Experiments:
[1] = target: T1, human tissue factor (TF) on human bladder carcinoma cells J82 (human, UniProt P13726 33-295); test: cell ELISA on paraformaldehyde-fixed J82 cells; AP-conjugated goat anti-human IgGγ; absorbance 405/655 nm
T1 construct: whole, on cells; also called the antigen; J82 cells
Description: (§1) Cell ELISA plates for measurement of antigen binding were prepared as follows. Cells used were human bladder carcinoma cells J82 (ATCC HTB-1). To 60 wells of a 96-well cell culture plate, 1 ×10^5 J82 cells were inoculated. This was cultured (RPMI1640 medium containing 10% fetal bovine serum (GIBCO)) for one day in a CO_2 incubator to allow the cells to be attached thereto. After discarding the culture liquid, each well was washed twice with 300 μl PBS. 100 μl of PBS containing 4% paraformaldehyde (hereinafter referred to as PFA/PBS) was added to each well, and placed on ice for 10 minutes to immobilize the cells.
(§2) PFA/PBS was discarded, and each well was washed twice with 300 μl of PBS, and then blocked with 250 μl of DB. The culture supernatant or purified antibody was serially diluted with DB, 100 μl of which was added to each well. After incubating at room temperature for 2 hours followed by washing with RB, 100 μl of alkaline phosphatase-conjugated goat anti-human IgGγ antibody (BioSource) diluted 1000-fold with DB was added. After incubating for 1 hour followed by washing with RB, the substrate solution was added, and then absorbance at 405/655 nm was measured using the Microplate Reader (Bio-Rad).

TF/Factor VIIa complex [2] = target: T2, TF/Factor VIIa complex (human, UniProt P13726 33-295; P08709 61-466)
T2 sequence (P13726 33-295 limits assumed, chain 1 of 2): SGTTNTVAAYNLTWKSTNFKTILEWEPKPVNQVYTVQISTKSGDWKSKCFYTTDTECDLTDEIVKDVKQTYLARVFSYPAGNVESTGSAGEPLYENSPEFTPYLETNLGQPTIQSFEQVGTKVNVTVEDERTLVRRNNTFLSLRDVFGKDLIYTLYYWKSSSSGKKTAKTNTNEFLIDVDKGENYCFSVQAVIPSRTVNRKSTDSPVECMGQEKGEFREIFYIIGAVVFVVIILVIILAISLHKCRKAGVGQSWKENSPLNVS
T2 sequence (P08709 61-466 limits assumed, chain 2 of 2): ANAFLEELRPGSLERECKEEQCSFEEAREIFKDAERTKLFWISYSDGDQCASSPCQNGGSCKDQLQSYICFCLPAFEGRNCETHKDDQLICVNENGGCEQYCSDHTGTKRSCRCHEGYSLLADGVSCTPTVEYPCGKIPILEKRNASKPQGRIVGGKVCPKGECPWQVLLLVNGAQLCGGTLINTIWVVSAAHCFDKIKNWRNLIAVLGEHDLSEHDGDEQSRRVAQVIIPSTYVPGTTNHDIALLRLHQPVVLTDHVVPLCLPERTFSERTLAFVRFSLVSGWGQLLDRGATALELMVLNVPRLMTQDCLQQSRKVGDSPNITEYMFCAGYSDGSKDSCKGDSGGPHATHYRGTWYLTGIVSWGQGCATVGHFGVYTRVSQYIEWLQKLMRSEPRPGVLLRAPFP

[3] = target: T1, human tissue factor (TF) on human …; test: cell ELISA on paraformaldehyde-fixed J82 cells; AP-conjugated goat anti-human IgGγ; absorbance 405/655 nm; remark: listed apart in the source
Description: as §1, §2

[4] = target: T3, soluble human TF (human TF 1-219 with the FLAG peptide linked to the C-terminal) (human, UniProt P13726 33-251); test: BIACORE; antibody captured on Protein G chip, soluble TF as analyte; mean ± SD, n = 3
T3 construct: Entry is the whole soluble construct (TF 1-219 followed by FLAG peptide M2); also called soluble TF; shTF
T3 sequence (P13726 other isoform, or with tags, fused parts or gaps limits assumed): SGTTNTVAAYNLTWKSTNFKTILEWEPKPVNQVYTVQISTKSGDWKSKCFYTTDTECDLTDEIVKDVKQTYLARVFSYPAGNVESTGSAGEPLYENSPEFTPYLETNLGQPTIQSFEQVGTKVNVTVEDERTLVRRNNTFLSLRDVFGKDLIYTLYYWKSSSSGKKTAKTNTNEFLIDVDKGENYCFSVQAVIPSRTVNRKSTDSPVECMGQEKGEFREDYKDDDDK
Description: Kinetic analysis of the antigen-antibody reaction was carried out using BIACORE. The recombinant Protein G was immobilized on a sensor chip, to which the antibody was coupled. The purified recombinant TF (a soluble TF in which the FLAG peptide was tagged at 1-219) was used as the antigen, and the-soluble TF prepared at various concentrations were used as analytes. From the sensorgram obtained, kinetic parameters (dissociation rate constants kdiss, and binding rate constants kass) were calculated.
As the running buffer, the HBS-EP buffer was used. Ten μl Of […] antibody solution was injected at a flow rate of 20 μl/min to immobilize antibody. The antibody was diluted with the HBS-EP buffer. Forty μl Of the soluble human TF solution at various concentrations were injected at a flow rate of 30 μl/min thereto. In the analysis, 80 seconds for injection was set as the binding phase and then changed to the HBS-EP buffer to set the dissociation phase of 120 seconds. After the dissociation phase was over, 10 μl of 20 mM hydrochloric acid was injected to reconstitute the sensor chip. The binding, dissociation, and reconstitution were set as one cycle, and the sensorgram was obtained for each antibody. The soluble human TF solution was prepared at concentrations of 250 nM, 125 nM, 62.5 nM, 31.3 nM, 15.6 nM, 7.81 nM, and 3.91 nM using the HBS-EP buffer. As the blank, the sensorgram obtained by injecting the HBS-EP buffer used for dilution was used.
The data file of interest was read in, and the comparison of reaction patterns by superscription was made using as the baseline the sensorgram of the HBS-EP buffer. Furthermore, using an analytical application software "BIAevaluation 2.1" (Pharmacia) exclusively for BIACORE that calculates kinetic parameters (binding rate constants kass and dissociation rate constants kdiss) by curve-fitting, kinetic analysis of interaction was performed. In order to determine the binding rate constants kass, the analysis model type 4 was used (BIAevaluation 2.1 Software Hand book, A1-A5). Based on the values calculated from each flow cell, kinetic parameters for each antibody were obtained.

TF/Factor VIIa complex [5] = target: T2, TF/Factor VIIa complex; test: cell-based or functional assay
[6] = target: T1, human tissue factor (TF) on human …; test: cell ELISA on paraformaldehyde-fixed J82 cells; AP-conjugated goat anti-human IgGγ; absorbance 405/655 nm; remark: listed apart in the source
Description: as §1, §2

[7] = target: T1, human tissue factor (TF) on human …; test: as above; remark: listed apart in the source
Description: as §1, §2

[8] = target: T1, human tissue factor (TF) on human …; test: as above; remark: listed apart in the source
Description: as §1, §2

T1 sequence (P13726 33-295): as the sequence (P13726 33-295 limits assumed, chain 1 of 2) above

B1: H chain humanized version b/L chain humanized version b antibody (antibody, IgG4, V domains shown)
VH: QVQLLESGAVLARPGTSVKISCKASGFNIKDYYMHWVKQRPGQGLEWIGGNDPANGHSMYDPKFQGRVTITADTSTNTAYMELSSLRSEDTAIYYCARDSGYAMDYWGQGTLVTVSS
VL: DIQMTQSPSSLSASVGDRVTITCKASQDIKSFLSWYQQKPGKAPKLLIYYATSLADGVPSRFSGSGSGTDYTLTISSLQPEDFATYYCLQHGESPYTFGGGTKVEIK
notes: also called b-b; bb
[1]
  EC50 (read off the curve): ~0.05 µg/mL
TF/Factor VIIa complex [2]
  IC50 (read off the curve): 0.1 µg/mL
[3]
  EC50 (read off the curve): ~0.07 µg/mL
[4]
  Kd: 2.3 nM
  koff: 0.000952 s⁻¹
  kon: 415000 M⁻¹ s⁻¹

B2: H chain chimeric/L chain chimeric antibody (chimeric ATR-5 antibody) (antibody, V domains shown)
VH: EVQLQQSGTNLVRPGALVKLSCKGSGFNIKDYYMHWVKQRPEQGLEWIGGNDPANGHSMYDPKFQGKASITADTSSNTAYLQLSSLTSEDTAVYFCARDSGYAMDYWGQGTSVTVSS
VL: DIKMTQSPSSMYASLGERVTITCKASQDIKSFLSWYQQKPWKSPKTLIYYATSLADGVPSRFSGSGSGQDYSLTINNLESDDTATYYCLQHGESPYTFGGGTKLEIK
notes: Mouse ATR-5 V regions joined to human C regions; Both an IgG1 (N5KG1(V)) and an IgG4 (N5KG4P) kappa form were made; also called ch-ch; cha-cha
TF/Factor VIIa complex [5]
  IC50 (read off the curve): ~0.2 µg/mL
[6]
  EC50 (read off the curve): ~0.04 µg/mL
[1]
  EC50 (read off the curve): ~0.04 µg/mL
[7]
  EC50 (read off the curve): ~0.05 µg/mL
[3]
  EC50 (read off the curve): ~0.07 µg/mL
[8]
  EC50 (read off the curve): ~0.08 µg/mL
[4]
  Kd: 1.09 nM
  koff: 0.000506 s⁻¹
  kon: 465000 M⁻¹ s⁻¹
